Experimental findings from patent US20260184780A1 (MONASH UNIVERSITY, published 2026) are described below.

Where a chain is given by its changes, count along the chain named.

The target of assay [1] is T1, hPAR4 (Biotin) peptide (human, biotin on the C-terminal lysine (SKB)).
T1 construct: also called hPAR4-biotinylated peptide; biotin-coupled human PAR4 peptide
T1 peptide: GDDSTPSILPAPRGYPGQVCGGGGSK
Kind of assay: SPR Biacore T200, biotin peptide on SA chip, whole mAb as analyte. As for the experimental part:
(§1) The kinetics of the binding interaction between the mAbs and hPAR4 was measured using Surface Plasmon Resonance (SPR; Biacore) by two different methods: 1. Anti-mouse Fc mAb capture method and 2. Streptavidin (SA) chip to capture biotinylated peptide. The ka(on) rate and kd(off) rates and KD were measured and fitted to a Langmuir model using the Biacore evaluation software.

For assay [2], the target named is T2, hPAR4 (naked) peptide (human).
T2 construct: also called native PAR4 peptide; hPAR4 peptide
T2 peptide: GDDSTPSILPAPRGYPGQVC
As to the kind of experiment: SPR Biacore T200, mAb captured by anti-mouse Fc, hPAR4 peptide as analyte. The protocol: A series S CM5 sensor chip was activated with standard EDC/NHS amine coupling chemistry using the manufacturers recommended protocol with Goat anti-mouse IgG Fc. Anti-hPAR4 mAbs were captured at 1-2 ug/ml for 2 minutes at 10 ul/minute on flow cell 2 (FC2) and flow cell 1 (FC1) was used as a reference channel. […] Blank injections of buffer alone were also performed. All injections were performed in duplicate and in a random order.
as §1
(In general: In SPR one partner is held on a chip, and binding of the other changes the refractive index at the surface.)

The target of assay [3] is T3, hPAR1 (Biotin) peptide (human, not fully specified; biotin on the C-terminal lysine (SKB)).
T3 construct: also called PAR1 peptide; PAR1 screening peptide
T3 peptide: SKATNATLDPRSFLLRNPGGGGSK
As to the kind of experiment: ELISA, hybridoma supernatant. (ELISA stands for enzyme-linked immunosorbent assay.)

The target of assay [4] is T4, hPAR3 (Biotin) peptide (human, biotin on the C-terminal lysine (SKB)).
T4 construct: also called PAR3 peptide; PAR3 screening peptide
T4 peptide: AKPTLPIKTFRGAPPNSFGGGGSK
Kind of assay: ELISA, hybridoma supernatant.

The target in assay [5] is T5, mPAR4 (naked) peptide (mouse).
T5 construct: T0021 says only 'mouse PAR4'; also called mouse PAR4
T5 peptide: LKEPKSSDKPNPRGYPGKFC
As to the kind of experiment: ELISA, hybridoma supernatant.

Assay [6] concerns the target T2, hPAR4 (naked) peptide. Kind of assay: ELISA, hybridoma supernatant.
Assay [7] deals with T2, hPAR4 (naked) peptide. As to the kind of experiment: ELISA, purified mAb on hPAR4 peptide.
The target of assay [8] is T3, hPAR1 (Biotin) peptide. As to the kind of experiment: ELISA, biotinylated peptide on streptavidin plate, absorbance 405 nm. As for the experimental part: (§2) Biotinylated peptides (hPAR1-4) were diluted in Wash buffer and allowed to bind to the blocked Streptavidin coated wells at 10 ug/ml (100 ul per well) for 1 hour at room temperature with gentle mixing. Wells were washed 3 times as above and purified anti-hPAR4 mAbs prepared at 10 ug/ml in Wash buffer were allowed to bind (100 ul/well) for 1 hour at room temperature with gentle mixing. The plate was washed 3 times as above and anti-mouse Fc conjugated to Alkaline phosphatase (AP) at 0.3 ug/ml (100 ul) was added to the wells for 1 hour as above. Wells were washed 3 times as above and developed with Alkaline Phosphatase substrate as described for the screening supernatant ELISA.
(§3) To further characterise the purified anti-hPAR4 mAb's the specificity of the mAbs to hPAR1, hPAR2, hPAR3 and hPAR4 biotinylated peptides was performed.

Assay [9] addresses T6, hPAR2 (Biotin) peptide (human, not fully specified; biotin on the C-terminal lysine (SKB)).
T6 construct: also called PAR2 peptide; PAR2 screening peptide
T6 peptide: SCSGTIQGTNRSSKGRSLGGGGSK
The assay is described as above. The protocol: as §2, §3

Assay [10] has as its target T4, hPAR3 (Biotin) peptide. The description is as above. As for the experimental part:
as §2, §3

The target in assay [11] is T7, human PAR4 on isolated human platelets (human, UniProt Q96RI0 18-385).
T7 construct: Endogenous receptor of donor platelets; donors carry Ala120 and/or Thr120; also called PAR4 on human platelets
T7 sequence: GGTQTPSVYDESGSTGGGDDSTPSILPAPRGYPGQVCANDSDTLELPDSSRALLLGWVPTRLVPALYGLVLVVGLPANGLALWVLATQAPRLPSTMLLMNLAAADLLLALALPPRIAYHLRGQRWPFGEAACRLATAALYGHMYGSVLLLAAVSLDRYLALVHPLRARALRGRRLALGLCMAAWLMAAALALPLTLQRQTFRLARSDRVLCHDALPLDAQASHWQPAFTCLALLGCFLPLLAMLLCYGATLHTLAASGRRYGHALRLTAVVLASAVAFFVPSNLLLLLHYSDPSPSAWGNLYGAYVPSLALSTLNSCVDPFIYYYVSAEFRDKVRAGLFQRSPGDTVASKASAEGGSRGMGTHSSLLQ
Kind of assay: flow cytometry on isolated human platelets. Background: A flow cytometer gives signals particle by particle.

The target of assay [12] is T7, human PAR4 on isolated human platelets. As to the kind of experiment: cell-based or functional assay.
The target in assay [13] is T8, hPAR4 1-9 peptide (human).
T8 construct: Range counted on the hPAR4 immunising peptide; also called peptide 1-9
T8 peptide: GDDSTPSIL
Kind of assay: ELISA, peptide coated on the plate, purified mAb, background subtracted. The protocol: (§4) Briefly the peptides were coated onto a Nunc maxisorp ELISA plate at 10 ug/ml overnight in coating buffer (0.1 M sodium carbonate pH8.0). Purified mAbs diluted in PBS were used in place of supernatant.

Assay [14] deals with T9, hPAR4 11-20 peptide (human).
T9 construct: Range counted on the hPAR4 immunising peptide; the C-terminal cysteine was removed, so nine residues are given; also called peptide 11-20
T9 peptide: APRGYPGQV
Described as above. The protocol:
as §4

B1: 5I.RG1.D6.C1b (antibody, IgG3, V domains shown)
VH: QVQLQQWGAGLLKPSETLSLACAISSGSFSTYFWRWIRQPPGKGLEWIGEIIHTGSTTYNPSLKSRVTISVDTSKNQLSLKLSSVTAADTAVYYCAFEYSSSGGYYYGMDVWGQGTTVTVSS
VL: DIQMTQSPSSLSASVGDRVTITCRASQSISSYLNWYQQIPGKAPNLLIYAASSLRSGVPSRFSGSGSGTDFTLTISSLQPEDFATYYCQQTYSTPLTFGGGTKVEIK
notes: also called 51.RG1; MoB5I G1
As for B1, the Kd in [1] is 0.36 nM; in assay [2] it was 105 nM. In addition, the figures for the koff in [1] and in assay [2] were 0.000667 s⁻¹ and 0.00146 s⁻¹, respectively. Besides, the figures for the kon in assay [1] and in assay [2] were 1.85e+06 M⁻¹ s⁻¹ and 14000 M⁻¹ s⁻¹, respectively. In addition, in assay [3], the “binding to PAR1 ratio” value was 1 ratio. Further, in assay [4], the “binding to PAR3 ratio” value worked out at 1 ratio. In assay [5], the “binding to mouse PAR4 ratio” value stood at 9.4 ratio. The “fold binding native vs KLH-linked PAR4 peptide” value (from here on “fold binding native”) in [6] was found to be 9.2 fold. In addition, in assay [7], the “ELISA Pos:Neg ratio” value is 6.3 ratio. For the same molecule, the binding result in assay [8], in assay [9] and in assay [10] was “no binding (tested: 10 ug/ml)” each time.

B2: 5H.RA3.D3b.A2b (antibody, IgG2a, V domains shown)
VH: QVQLVESGGGVVQPGRSLRVSCAASGFTFSSYGMLWVRQAPGKGLEWVAVIWYDGTKKYYADSLKGRFTISRDNSKYTLYLQMNSLRADDTALYFCARKGARGITGLDYWGQGTLVTVSS
VL: not shown
notes: also called MoB5H A3
Turning to B2, in [11], the “GMFI at 10 ug/ml over isotype control” value turned out to be 100. In assay [12], the “platelet aggregation, % of control” value is < 25 % of control. Moreover, the binding result in [8], in assay [9] and in assay [10] was “no binding (tested: 10 ug/ml)” throughout.

B3: 5F RE6.D3.E7 (antibody, IgG2a, V domains shown)
VH: B2 VH with V5A, L35H
VL: B1 VL with V15A, V19I, S31N, I39K, N45K, R55Q, T85S, Q89R, T91N, S93N
notes: also called MoB5F E6
With B3, the “binding to PAR1 ratio” value in assay [3] was found to be 1.1 ratio. Besides, the “binding to PAR3 ratio” value in assay [4] was 0.8 ratio. Further, the “binding to mouse PAR4 ratio” value in [5] is 12.2 ratio. For the same molecule, the “fold binding native” value in [6] was found to be 12 fold.

B4: 5H RG4.H7b.F5b (antibody, IgG2a, V domains shown)
VH: QVQLVQSGAEVKKPGASVKVSCKASGYTFTGHYFHWVRQAPGQGLEWMGWINPNSGGTNFAQRFQGRVTMTRVTSISTAYMELSGLRSDDTAVYYCARGYYDTSGYYYAFEFWGQGTLVIVSS
VL: not shown
As to B4, the “platelet aggregation, % of control” value in assay [12] was > 80 % of control.

B5: 5G.RA1.E10.G3 (antibody, IgG2a, V domains shown)
VH: QVQLVESGGGVVQPGRSLRLSCAASGFTFSSYGMHWVRQAPGKGLEWVAVIWYDGSNKYYADSVKGRFTISRDNSKNTLYLQMNSLRAEDTAVYYCARETALVRGVPFDYWGQGTLVTVSS
VL: not shown
notes: also called MoB5G A1
Regarding B5, the “GMFI at 10 ug/ml over isotype control” value in assay [11] was 25. Moreover, the binding result in assay [13] is recorded as “no binding”; in [14], “no binding”; in [8] it was “no binding (tested: 10 ug/ml)”; in [9] it was “no binding (tested: 10 ug/ml)”; in assay [10], “no binding (tested: 10 ug/ml)”.

B6: 5G RG1.D3.C2b (antibody, IgG1, V domains shown)
VH: B5 VH with A23V, F29L, N57S, A61T, T69D, S85I, A101I, V103I, R104G
VL: EIVLTQSPGTLSLSPGERATLSCGASQSIRSNYLAWYQQKPGQAPRLLIYGASSRATGTPDRFSGSGSGTDFTLTITRLEPEDFALYYCQQYGRSYTFGQGTKLEIK
notes: also called MoB5G G1
As to B6, in assay [12], the “platelet aggregation, % of control” value was < 25 % of control. For the same molecule, the “binding to PAR1 ratio” value in assay [3] came out at 1.1 ratio. The “binding to PAR3 ratio” value in [4] was 0.8 ratio. The “binding to mouse PAR4 ratio” value in [5] was 8.6 ratio. The “fold binding native” value in [6] stood at 11.1 fold.

B7: 5G RD6.D1.E11b (antibody, IgG2a, V domains shown)
VH: B5 VH with T28A, K58R, N74T, Y80F, L102M
VL: not shown
Regarding B7, in assay [12], the “platelet aggregation, % of control” value is > 80 % of control.

B8: 5D.RH4.G7.E6.C7b.G7 (antibody, IgG2a, V domains shown)
VH: QIQLVESGGGVVQPGRSLRLSCAASGFTFSSDGMHWVRQAPGKGLEWVAVIWFDGRNKYYLDSVKGRFTISRDNSKNTLYLQMNSLRAEDTAVYYCARESSISTRPPFDYWGQGTLVTVSS
VL: not shown
notes: Human variable regions on mouse constant regions, IgG2a/K
On to B8, for which the “GMFI at 10 ug/ml over isotype control” value in assay [11] came to 33. The binding result is reported as “no binding” in [13]; “no binding” in [14]; “no binding (tested: 10 ug/ml)” in assay [8]; “no binding (tested: 10 ug/ml)” in [9]; “no binding (tested: 10 ug/ml)” in [10].

B9: 5H.RD2.A7b (antibody, IgG1, V domains shown)
VH: EVQLVESGGDLVKPGGSLRLSCSASGFTFFNTWMNWVRQAPGKGLEWVGRVKSKNDGGTKDYAAPVTGRFTISRDDSKDTLYLQMNSLKTEDTAVYYCTTDPHYDFWSAYWGQGTLVTVSS
VL: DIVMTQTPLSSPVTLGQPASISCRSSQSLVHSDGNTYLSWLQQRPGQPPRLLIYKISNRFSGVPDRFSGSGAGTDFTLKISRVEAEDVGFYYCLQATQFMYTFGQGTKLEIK
notes: also called MoB5H-RD2.A7b; MoB5H D2
B9: in assay [12], the “platelet aggregation, % of control” value is > 80 % of control. For the same molecule, in assay [3], the “binding to PAR1 ratio” value is 1 ratio. The “binding to PAR3 ratio” value in [4] was determined as 0.9 ratio. Besides, the “binding to mouse PAR4 ratio” value in [5] was determined as 6.2 ratio. Moreover, the “fold binding native” value in [6] was 6 fold.

One may read the Kd as the concentration at which binding is half-saturated. Read a high Kd as lower affinity. One may read the koff as the first-order rate constant of dissociation. Higher therefore signals fast dissociation. What is called kon is a measure of how fast the partners come together. A high value points to faster complex formation.
